Reference: patent US20250361274A1, “PEPTIDE AND PEPTIDE-CONTAINING AGENT” (PEPTIDREAM INC., priority 2022, published 2025)
Numbered stars: 1 amine (or outer) side, 2 acyl side, 3 side chain; on linkers, the order of the positions; unused ones are H or OH. Square brackets hold non-standard residues; d marks the D form. Ends that are not written are not given here. KCOpipzaa = N6-(4-(carboxymethyl)piperazine-1-carbonyl)-L-lysine, O=C(NCCCC[C@H](N[*:1])C(=O)[*:2])N1CCN(CC(=O)[*:3])CC1; Bph3C = (S)-2-amino-3-(3'-chloro-[1,1'-biphenyl]-4-yl)propanoic acid, O=C([C@H](Cc1ccc(-c2cccc(Cl)c2)cc1)N[*:1])[*:2]; Bph3F = (S)-2-amino-3-(3'-fluoro-[1,1'-biphenyl]-4-yl)propanoic acid, O=C([C@H](Cc1ccc(-c2cccc(F)c2)cc1)N[*:1])[*:2]; Cha4tH = (S)-2-amino-3-((1r,4S)-4-hydroxycyclohexyl)propanoic acid, O=C([C@H](C[C@H]1CC[C@H](O[*:3])CC1)N[*:1])[*:2]; Phe(4-(4-pyridyl)) = N[C@@H](Cc1ccc(-c2ccncc2)cc1)C(=O)O; Phe(4-(3-Py)) = N[C@@H](Cc1ccc(-c2cccnc2)cc1)C(=O)O; 3Pal(6-Ph) = N[C@@H](Cc1ccc(-c2ccccc2)nc1)C(=O)O; Phe(4-COOH) = N[C@@H](Cc1ccc(C(=O)O)cc1)C(=O)O; Bip = N[C@@H](Cc1ccc(-c2ccccc2)cc1)C(=O)O; Hyp = O=C(O)[C@@H]1C[C@@H](O)CN1; NMeF = CN[C@@H](Cc1ccccc1)C(=O)O; 3Pal = N[C@@H](Cc1cccnc1)C(=O)O; 4Pal = N[C@@H](Cc1ccncc1)C(=O)O; Cha = N[C@@H](CC1CCCCC1)C(=O)O

Legend:
BMP4 = target: T1, BMP4 (Homo sapiens, UniProt P12644); assay: BMP4 signal transduction inhibitory activity: SMAD1 phosphorylation by BMP4 stimulus, AlphaLISA SureFire, A549 cells; type: cell-based; details: BMP4 0.2 nM; for aLIZA BMP4 (0.2 nM) % inh: peptide 0.02, 0.2, 2 nM, Table 6; for aLISA BMP4 (0.2 nM) % inh: SMAD1 phosphorylation, peptide conc. in assay 0.2, 2, 20 nM
T1 sequence (P12644 293-408): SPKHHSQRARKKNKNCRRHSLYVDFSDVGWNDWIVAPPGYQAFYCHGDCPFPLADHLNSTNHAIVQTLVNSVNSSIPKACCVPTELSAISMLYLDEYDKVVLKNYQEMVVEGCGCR

BMP7 = target: T2, BMP7 (Homo sapiens, UniProt P18075); assay: BMP7 signal transduction inhibitory activity: SMAD1 phosphorylation by BMP7 stimulus, A549 cells; type: cell-based; details: BMP7 10 nM; for aLIZA BMP7 (10 nM) % inh: peptide 10, 100, 1000 nM, Table 6; for aLISA BMP7 (10 nM) % inh: SMAD1 phosphorylation, peptide conc. in assay 1, 10, 100 nM
T2 sequence (P18075 293-431): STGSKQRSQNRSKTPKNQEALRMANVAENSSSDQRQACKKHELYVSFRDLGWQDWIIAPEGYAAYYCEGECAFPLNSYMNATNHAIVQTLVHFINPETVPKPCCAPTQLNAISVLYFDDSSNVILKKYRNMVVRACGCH
How it was run: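 SMAD1 phosphorylation readout in A549 cells stimulated with BMP7 (10 nM). Peptides were tested at three levels (e.g. 1/10/100, 10/100/1,000, 100/300/1,000, 10/30/90 nM) or at eight points, 1/3 steps, from 100 or 1,000 nM. Recombinant Noggin served as positive control at matching concentrations.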

Row | Substance | aLIZA BMP4 (0.2 nM) % inh (BMP4) | aLIZA BMP7 (10 nM) % inh (BMP7) | aLISA BMP4 (0.2 nM) % inh (BMP4) | aLISA BMP7 (10 nM) % inh (BMP7)
1 | 318 (ERV[Phe(4-COOH)][Cha4tH][KCOpipzaa]R[3Pal(6-Ph)][KCOpipzaa]Y[Hyp][Bph3F]Y[Phe(4-COOH)][Phe(4-COOH)]SCG-NH2; not fully specified) [compound 318] | B (showed less than 30% of inhibitory activity in 0.02 nM-addition zone and showed 30% or more of inhibitory activity in 0.2 nM-addition zone) | D (showed less than 30% of inhibitory activity in a zone to which the peptide was added in an amount of 10 nM and showed 30% or more of inhibitory activity in 100 nM-addition zone) | – | –
2 | 319 (ERV[Phe(4-COOH)][Cha4tH][KCOpipzaa]R[3Pal(6-Ph)][KCOpipzaa]Y[Hyp][Bph3C]Y[Phe(4-COOH)][Phe(4-COOH)]SCG-NH2; not fully specified) [compound 319] | B (showed less than 30% of inhibitory activity in 0.02 nM-addition zone and showed 30% or more of inhibitory activity in 0.2 nM-addition zone) | D (showed less than 30% of inhibitory activity in a zone to which the peptide was added in an amount of 10 nM and showed 30% or more of inhibitory activity in 100 nM-addition zone) | – | –
3 | 320 (ERV[Phe(4-COOH)][Cha4tH][KCOpipzaa]R[3Pal(6-Ph)][KCOpipzaa]Y[Hyp][Bph3F][4Pal][Phe(4-COOH)][Phe(4-COOH)]SCG-NH2; not fully specified) [compound 320] | B (showed less than 30% of inhibitory activity in 0.02 nM-addition zone and showed 30% or more of inhibitory activity in 0.2 nM-addition zone) | E (showed less than 30% of inhibitory activity in 100 nM-addition zone and showed 30% or more of inhibitory activity in 1,000 nM-addition zone) | – | –
4 | 321 (ERV[Phe(4-COOH)][Cha4tH][KCOpipzaa]R[3Pal(6-Ph)][KCOpipzaa]Y[Hyp][Bph3C][4Pal][Phe(4-COOH)][Phe(4-COOH)]SCG-NH2) [compound 321] | B (showed less than 30% of inhibitory activity in 0.02 nM-addition zone and showed 30% or more of inhibitory activity in 0.2 nM-addition zone) | E (showed less than 30% of inhibitory activity in 100 nM-addition zone and showed 30% or more of inhibitory activity in 1,000 nM-addition zone) | – | –
5 | 322 ([4Pal]G[NMeF]G[Bip]GDD[Cha]A[NMeF]LHCG-NH2) [compound 322] | – | – | ND (the inhibitory activity was less than 30% at the maximum concentration evaluated) | D (showed less than 30% of inhibitory activity in 10 nM-addition zone and showed 30% or more of inhibitory activity in 100 nM-addition zone)
6 | 323 ([3Pal]G[NMeF]G[Bip]GDD[Cha]A[NMeF]LHCG-NH2; not fully specified) [compound 323] | – | – | ND (the inhibitory activity was less than 30% at the maximum concentration evaluated) | D (showed less than 30% of inhibitory activity in 10 nM-addition zone and showed 30% or more of inhibitory activity in 100 nM-addition zone)
7 | 324 (FG[NMeF]GFGDD[Cha]A[NMeF]LHCG-NH2) [compound 324] | – | – | ND (the inhibitory activity was less than 30% at the maximum concentration evaluated) | D (showed less than 30% of inhibitory activity in 10 nM-addition zone and showed 30% or more of inhibitory activity in 100 nM-addition zone)
8 | 325 (FG[NMeF]G[Phe(4-(4-pyridyl))]GDD[Cha]A[NMeF]LHCG-NH2; not fully specified) [compound 325] | – | – | ND (the inhibitory activity was less than 30% at the maximum concentration evaluated) | D (showed less than 30% of inhibitory activity in 10 nM-addition zone and showed 30% or more of inhibitory activity in 100 nM-addition zone)
9 | 326 (FG[NMeF]G[Phe(4-(3-Py))]GDD[Cha]A[NMeF]LHCG-NH2; not fully specified) [compound 326] | – | – | ND (the inhibitory activity was less than 30% at the maximum concentration evaluated) | D (showed less than 30% of inhibitory activity in 10 nM-addition zone and showed 30% or more of inhibitory activity in 100 nM-addition zone)
